Experimental data: patent US7598290B2, “Cytotoxic agents comprising new C-2 modified taxanes” (priority 2005, dated 2009)

B1: huC242-taxoid (conjugate, chains of the INN, looked up)
VH: QVQLVQSGAEVKKPGETVKISCKASDYTFTYYGMNWVKQAPGQGLKWMGWIDTTTGEPTYAQKFQGRIAFSLETSASTAYLQIKSLKSEDTATYFCARRGPYNWYFDVWGQGTTVTVSS
VL: DIVMTQSPLSVPVTPGEPVSISCRSSKSLLHSNGNTYLYWFLQRPGQSPQLLIYRMSNLVSGVPDRFSGSGSGTAFTLRISRVEAEDVGVYYCLQHLEYPFTFGPGTKLELK
modifications: taxoid payload conjugate

How the values were obtained:
[1] = test system: human melanoma cells, A-375; assay: In vitro potency and specificity, WST-8 assay, antigen negative A-375 cells; type: cell-based; details: for IC50: A-375 (antigen negative), 4 days incubation, WST-8
Experimental: (§1) In vitro potency and specificity of huC242-Taxoid conjugate. Samples of free taxoid or huC242-Taxoid conjugate were added to a 96-well flat bottomed tissue culture plate and titrated using serial dilutions ranging from 1×10^−12 M to 3×10^−7 M. Human colon tumor cells, COLO 205, or human melanoma cells, A-375, were added to the wells in such a way that there were triplicate samples for each drug concentration for each cell line. The plates were incubated at 37° C. in an atmosphere of 5% CO2 for 4 days.
(§2) At the end of the incubation period, 20 μl of the tetrazolium reagent WST-8 (2-(2-methoxy-nitrophenyl)-3-(4-nitrophenyl)-5-(2,4-disulfophenyl)-2-tetrazolium, monosodium salt]) was added to each well, and the plates were returned to the incubator for 2 hours. The absorbance in each well of the plates was then measured using the Molecular Devices plate reader at 450 nm. Surviving fraction of cells at each concentration of taxoid or conjugate are plotted in FIGS. 2 a,b.

[2] = test system: Human colon tumor cells, COLO 205; assay: In vitro potency and specificity, WST-8 assay, antigen positive COLO 205 cells; type: cell-based; details: COLO 205 (antigen positive), 4 days incubation
Experimental: as §1, §2

Molecule | IC50 ([1]; Homo sapiens, 96 h) [nM] | IC50 ([2]; Homo sapiens, 96 h) [nM] | IC50 [1] [nM] | antigen negative cells less sensitive than COLO 205 ([1]; A-375 versus COLO 205) | IC50 [2] [nM]
CSSC(C)(C)CCC(=O)O[C@H]1C(=O)[C@@]2(C)[C@H]([C@H](OC(=O)c3ccco3)[C@]3(O)C[C@H](OC(=O)[C@H](O)[C@@H](NC(=O)OC(C)(C)C)c4ccco4)C(C)=C1C3(C)C)[C@]1(OC(C)=O)CO[C@@H]1C[C@@H]2O [IGT-16-141, 3′-dephenyl-3′-(2-furyl)-2-debenzoyl-2-(2-furoyl)-10-(4,4-dimethyl-4-methyldithiobutanoyl)-docetaxel] | ~0.8 | ~0.8 | – | – | –
B1 | – | – | 29 | about 94 fold | 0.31
